# In patent publication US20210403591A1:
# Assays:
# [1] = molecular target: mTfR-1 N253A on Expi293 cells (mouse) (UniProt Q62351); assay: FACS, transfected Expi293 cells
# [2] = molecular target: mTfR-1 S255A on Expi293 cells (mouse) (UniProt Q62351); assay: FACS, transfected Expi293 cells
# [3] = molecular target: mTfR-1 L256A on Expi293 cells (mouse) (UniProt Q62351); assay: FACS, transfected Expi293 cells; mutant poorly expressed
# Sequence of mTfR-1 L256A on Expi293 cells (mouse) (Q62351 whole entry L256A): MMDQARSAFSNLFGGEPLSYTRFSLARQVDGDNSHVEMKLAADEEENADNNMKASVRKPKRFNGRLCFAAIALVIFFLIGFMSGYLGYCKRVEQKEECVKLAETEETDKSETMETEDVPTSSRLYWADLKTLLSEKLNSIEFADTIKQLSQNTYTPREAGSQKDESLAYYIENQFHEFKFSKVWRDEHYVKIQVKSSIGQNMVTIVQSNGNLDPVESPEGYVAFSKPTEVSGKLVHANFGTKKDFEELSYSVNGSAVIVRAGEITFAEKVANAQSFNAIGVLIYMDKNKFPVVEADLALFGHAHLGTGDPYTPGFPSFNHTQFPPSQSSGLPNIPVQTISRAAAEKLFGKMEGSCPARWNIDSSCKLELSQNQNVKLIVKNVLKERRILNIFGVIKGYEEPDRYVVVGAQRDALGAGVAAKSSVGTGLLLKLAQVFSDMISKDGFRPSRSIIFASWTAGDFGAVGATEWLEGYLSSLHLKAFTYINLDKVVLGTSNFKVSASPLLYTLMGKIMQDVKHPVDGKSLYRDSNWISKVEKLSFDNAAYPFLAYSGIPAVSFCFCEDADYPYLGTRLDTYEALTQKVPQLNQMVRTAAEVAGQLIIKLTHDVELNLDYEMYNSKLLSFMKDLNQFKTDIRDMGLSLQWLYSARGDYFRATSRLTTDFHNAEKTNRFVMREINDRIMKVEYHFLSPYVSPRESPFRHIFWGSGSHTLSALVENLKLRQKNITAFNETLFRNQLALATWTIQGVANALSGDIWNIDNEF
# Sequence of mTfR-1 S255A on Expi293 cells (mouse) (Q62351 whole entry S255A): as the sequence (Q62351 whole entry L256A) above, with S255A, A256L counted along it
# Sequence of mTfR-1 N253A on Expi293 cells (mouse) (Q62351 whole entry N253A): as the sequence (Q62351 whole entry L256A) above, with N253A, A256L counted along it
% double-positive cells vs WT [1] [%],% double-positive cells vs WT [2] [%],% double-positive cells vs WT [3] [%],Binder
27,19,,"Clone C variant 13 VNAR-hFc (Fc fusion, not shown: a dimerising Fc or GST) ARVDQTPQTITKETGESLTINCVLRDSNCALSSTYWYRKKSGSTNEENISKGGRYVETVNSGSKSFSLRINDLTVEDSGTYRCNVVQYPQQDNYFWCDVYGDGTAVTVN"
,,1,"Clone C VNAR-hFc fusion (Fc fusion, not shown: a dimerising Fc or GST) ARVDQTPQTITKETGESLTINCVLRDSNCALSSTYWYRKKSGSTNEENISKGGRYVETVNSGSKSFSLRINDLTVEDSGTYRCNVVQYPSYNNYFWCDVYGDGTAVTVN"
